According to patent publication US8927230B2, “C-terminal modification of polypeptides” (EUCODIS Bioscience GmbH, priority 2004, dated 2015):

Target: T1, N^α-benzoylated peptides of SEQ ID NOs: 2-18 (Rattus norvegicus, UniProt P00763, D194K/E154H/K66E/N146H)
T1 construct: made in house; host or cells: E. coli or yeast (general procedure; the host actually used is not fixed)
T1 sequence (P00763 24-246 K66E/N146H/E154H/D194K): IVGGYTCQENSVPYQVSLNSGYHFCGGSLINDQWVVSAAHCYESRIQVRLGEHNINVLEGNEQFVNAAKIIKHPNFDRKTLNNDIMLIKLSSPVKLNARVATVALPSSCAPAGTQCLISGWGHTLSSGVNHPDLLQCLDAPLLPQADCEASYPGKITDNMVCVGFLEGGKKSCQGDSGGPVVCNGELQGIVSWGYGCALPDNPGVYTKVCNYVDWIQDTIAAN
Experiment: Influence of the recognition sequence on the rate of reaction catalyzed by the trypsin variant (HPLC, peptide consumption)
Assay type: biochemical
Conditions: 1 mM peptide, 20 μM trypsin variant, 100 μM ZnCl2, 0.1 M Pipes/Tris-buffer pH 8.0, 30° C.
Text: Variant trypsin according to the present invention has been tested for catalytic activity upon peptide substrates with different peptide sequences at or close to the cleavage site. The initial rate (v) of peptide consumption is given in nM/min
The N^α-benzoylated peptides of SEQ ID NOs: 2-18 have been synthesized by conventional solid-phase peptide synthesis using Fmoc-chemistry and a preloaded Wang-resin. The respective amino acid building blocks are commercially available and were purchased from various suppliers.
1 ml reaction volume containing 1 mM N^α-benzoylated peptide dissolved in 0.1 M Pipes/Tris-buffer pH 8.0; 20 μM trypsin variant Tn K60E, E151H, N143H, D189K; 100 μM ZnCl2 was stirred at 30° C. After defined time intervals, the reactions were terminated by adding of 1% trifluoroacetic acid in methanol/water (1:1, v/v). The quenched reaction mixtures were analyzed by analytical HPLC. The identity of the final products was verified by mass spectroscopy.

B1: Tn K60E, E151H, N143H, D189K: mutated anionic rat trypsin II, without signal sequence and pro-sequence (SEQ ID NO: 1), with K60E, N143H, E151H, D189K (protein)
chain: IVGGYTCQENSVPYQVSLNSGYHFCGGSLINDQWVVSAAHCYESRIQVRLGEHNINVLEGNEQFVNAAKIIKHPNFDRKTLNNDIMLIKLSSPVKLNARVATVALPSSCAPAGTQCLISGWGHTLSSGVNHPDLLQCLDAPLLPQADCEASYPGKITDNMVCVGFLEGGKKSCQGDSGGPVVCNGELQGIVSWGYGCALPDNPGVYTKVCNYVDWIQDTIAAN
cleavage site preference (substrate specificity from initial rates of peptide consumption, FIG. 4): strong preference for a cleavage site comprising L, F or Y in position P1, R or K in position P1′ and His in position P2′
